The Immune Epitope Database (IEDB)
Blank lines part the entries; values can stand above or below the sequence they belong to.

Columns and labels:
[1] = molecular target: HLA-A*01:01; assay: IEDB peptide-MHC binding, purified MHC/direct/fluorescence; filed as Kd, often an IC50 or EC50 that approximates it; ≥ and ≤ were set here for values at or beyond the usual limits of such assays
[2] = molecular target: HLA-A*02:01; assay: as above
[3] = molecular target: HLA-A*03:01; assay: as above
[4] = molecular target: HLA-A*11:01; assay: as above
[5] = molecular target: HLA-A*23:01; assay: as above; settings: source organism: Influenza A virus
[6] = molecular target: HLA-A*24:02; assay: as above
[7] = molecular target: HLA-A*24:03; assay: as above
[8] = molecular target: HLA-A*26:01; assay: as above
[9] = molecular target: HLA-A*31:01; assay: as above
[10] = molecular target: HLA-A*68:02; assay: as above; settings: source organism: Influenza A virus
[11] = molecular target: HLA-A*69:01; assay: as above
[12] = molecular target: HLA-B*07:02; assay: as above
[13] = molecular target: HLA-B*08:01; assay: as above
[14] = molecular target: HLA-B*15:01; assay: as above
[15] = molecular target: HLA-B*27:05; assay: as above
[16] = molecular target: HLA-B*40:01; assay: as above
[17] = molecular target: HLA-B*44:02; assay: as above
[18] = molecular target: HLA-B*46:01; assay: as above
[19] = molecular target: HLA-B*57:01; assay: as above; settings: source organism: Influenza A virus
[20] = molecular target: HLA-B*58:01; assay: as above
[21] = molecular target: HLA-A*26:02; assay: IEDB peptide-MHC binding, purified MHC/competitive/fluorescence; filed as Kd, often an IC50 or EC50 that approximates it; ≥ and ≤ were set here for values at or beyond the usual limits of such assays
[22] = molecular target: HLA-B*15:17; assay: as above
[23] = molecular target: HLA-B*18:01; assay: as above
[24] = molecular target: HLA-C*05:01; assay: IEDB peptide-MHC binding, purified MHC/direct/fluorescence; filed as Kd, often an IC50 or EC50 that approximates it; ≥ and ≤ were set here for values at or beyond the usual limits of such assays
[25] = molecular target: HLA-B*08:02; assay: as above
[26] = molecular target: HLA-A*02:03; assay: IEDB peptide-MHC binding, purified MHC/competitive/fluorescence; filed as Kd, often an IC50 or EC50 that approximates it; ≥ and ≤ were set here for values at or beyond the usual limits of such assays
[27] = molecular target: HLA-A*02:06; assay: as above
[28] = molecular target: HLA-A*02:11; assay: as above; settings: source organism: Pasteurella multocida subsp. multocida str. Pm70
[29] = molecular target: HLA-A*02:12; assay: as above; settings: source organism: Pasteurella multocida subsp. multocida str. Pm70
[30] = molecular target: HLA-B*15:09; assay: IEDB peptide-MHC binding, purified MHC/direct/fluorescence; filed as Kd, often an IC50 or EC50 that approximates it; ≥ and ≤ were set here for values at or beyond the usual limits of such assays
[31] = molecular target: HLA-B*18:01; assay: as above; settings: source organism: Influenza A virus (A/Viet Nam/HN/2004(H5N1))
[32] = molecular target: HLA-A*01:01; assay: IEDB peptide-MHC binding, purified MHC/competitive/fluorescence; filed as Kd, often an IC50 or EC50 that approximates it; ≥ and ≤ were set here for values at or beyond the usual limits of such assays; settings: source organism: Human immunodeficiency virus 1
[33] = molecular target: HLA-A*30:01; assay: as above; settings: source organism: Human immunodeficiency virus 1
[34] = molecular target: HLA-B*15:01; assay: as above; settings: source organism: Human immunodeficiency virus 1
[35] = molecular target: HLA-B*57:01; assay: as above; settings: source organism: Human immunodeficiency virus 1
[36] = molecular target: HLA-A*02:11; assay: IEDB peptide-MHC binding, purified MHC/direct/fluorescence; filed as Kd, often an IC50 or EC50 that approximates it; ≥ and ≤ were set here for values at or beyond the usual limits of such assays; settings: source organism: Bacillus cereus NVH0597-99
[37] = molecular target: HLA-B*39:01; assay: as above; settings: source organism: Bacillus cereus NVH0597-99
[38] = source organism: Influenza A virus
[39] = source organism: Influenza A virus (A/tiger/Thailand/CU-LV/2004(H5N1))
[40] = source organism: Influenza A virus (A/Puerto Rico/8/34/Mount Sinai(H1N1))
[41] = source organism: Influenza A virus (A/ruddy turnstone/NJ/60/1985(N9))
[42] = source organism: H9N2 subtype Influenza A virus (A/swine/Korea/S81/2004(H9N2))
[43] = source organism: Pasteurella multocida
[44] = source organism: Pasteurella multocida subsp. multocida str. Pm70
[45] = source organism: Influenza A virus (A/equine/New York/1/1999(H3N8))
[46] = source organism: Influenza A virus(A/swine/Shandong/fNY/2003(H9N2))
[47] = source organism: Influenza A virus (A/Viet Nam/HN/2004(H5N1))
[48] = source organism: Influenza A virus(A/swine/Henan/3/2004(H9N2))
[49] = source organism: Human immunodeficiency virus 1

Sequence: DWSGYSGSF
Kd [1, 38]: ≥ 20 µM
Kd [2, 38]: ≥ 20 µM
Kd [3, 38]: ≥ 20 µM
Kd [4, 38]: ≥ 20 µM
Kd [5]: 175 nM
Kd [6, 38]: 0.0875 µM
Kd [7, 39]: 0.072 µM
Kd [8, 39]: ≥ 20 µM
Kd [9, 38]: ≥ 20 µM
Kd [10]: ≥ 20 µM
Kd [11, 38]: ≥ 20 µM
Kd [12, 38]: ≥ 20 µM
Kd [13, 38]: ≥ 20 µM
Kd [14, 40]: ≥ 10 µM
Kd [15, 38]: ≥ 20 µM
Kd [16, 38]: ≥ 20 µM
Kd [17, 38]: ≥ 20 µM
Kd [18, 38]: ≥ 20 µM
Kd [19]: ≥ 20 µM
Kd [20, 38]: ≥ 20 µM
Kd [21, 41]: 3450 nM
Kd [22, 41]: 1240 nM
Kd [23, 41]: ≥ 20000 nM

Sequence: FFNVEIPEF
Kd ([24]; source organism: human gammaherpesvirus 4): ≥ 20000 nM

Sequence: KAVRGDLNF
Kd [1, 42]: ≥ 20 µM
Kd [2, 42]: ≥ 20 µM
Kd [3, 42]: ≥ 20 µM
Kd [4, 42]: ≥ 20 µM
Kd [6, 42]: ≥ 20 µM
Kd [9, 42]: ≥ 20 µM
Kd [11, 42]: ≥ 20 µM
Kd [12, 42]: ≥ 20 µM
Kd [13, 42]: ≥ 20 µM
Kd ([25]; source organism: Influenza A virus(A/swine/Shandong/fZC/2003(H9N2))): ≥ 20 µM
Kd [14, 40]: 0.929 µM
Kd [15, 42]: ≥ 20 µM
Kd [16, 42]: ≥ 20 µM
Kd [17, 42]: ≥ 20 µM
Kd [20, 42]: 0.093 µM

Kd [1, 43]: ≥ 20 µM
Kd [2, 43]: 0.0472 µM
Kd [3, 43]: ≥ 20 µM
Kd [4, 43]: ≥ 20 µM
Kd [7, 43]: 11.4 µM
Kd [8, 43]: ≥ 20 µM
Kd [9, 43]: 2.58 µM
Kd [11, 43]: 0.0168 µM
Kd [12, 43]: ≥ 20 µM
Kd [13, 43]: ≥ 20 µM
Kd [14, 43]: 7.69 µM
Kd [15, 43]: ≥ 20 µM
Kd [16, 43]: ≥ 20 µM
Kd [20, 43]: ≥ 20 µM
Kd [26, 44]: ≤ 0.1 nM
Kd [27, 44]: ≤ 0.0001 µM
Kd [28]: ≤ 0.1 nM
Kd [29]: ≤ 0.1 nM
Sequence: LMAEDLANV

Sequence: RELVRKTRF
Kd [1, 45]: ≥ 20 µM
Kd [2, 45]: ≥ 20 µM
Kd [3, 45]: ≥ 20 µM
Kd [4, 45]: ≥ 20 µM
Kd [6, 45]: ≥ 20 µM
Kd [8, 46]: ≥ 20 µM
Kd [9, 45]: ≥ 20 µM
Kd [11, 45]: ≥ 20 µM
Kd [12, 45]: ≥ 20 µM
Kd [13, 45]: ≥ 20 µM
Kd [14, 40]: 1.58 µM
Kd [30, 46]: ≥ 20 µM
Kd [15, 45]: ≥ 20 µM
Kd [16, 40]: 0.35 µM
Kd [18, 45]: ≥ 20 µM
Kd [20, 45]: ≥ 20 µM

Sequence: RRVRDNMTK
Kd [1, 47]: ≥ 20 µM
Kd [2, 47]: ≥ 20 µM
Kd [3, 47]: ≥ 20 µM
Kd [4, 47]: ≥ 20 µM
Kd [6, 47]: ≥ 20 µM
Kd [8, 48]: ≥ 20 µM
Kd [11, 47]: ≥ 20 µM
Kd [12, 47]: ≥ 20 µM
Kd [13, 47]: ≥ 20 µM
Kd [25, 48]: ≥ 20 µM
Kd [14, 47]: ≥ 20 µM
Kd [31]: ≥ 20 µM
Kd [15, 40]: 0.45 µM
Kd [16, 47]: ≥ 20 µM
Kd [17, 47]: ≥ 20 µM
Kd [18, 47]: ≥ 20 µM
Kd [20, 47]: ≥ 20 µM

Sequence: RSLYNTIATLY
Kd [32]: 1650 nM
Kd [26, 49]: 722 nM
Kd [27, 49]: ≥ 20 µM
Kd [21, 49]: 921 nM
Kd [33]: ≥ 20 µM
Kd [34]: 103 nM
Kd [22, 49]: 0.7 nM
Kd [23, 49]: 119 nM
Kd [35]: 128 nM

Sequence: YNDWEGNEL
Kd [36]: ≥ 20 µM
Kd ([30]; source organism: Bacillus cereus NVH0597-99): 3.92 µM
Kd [37]: 598 nM
Kd ([24]; source organism: Bacillus anthracis str. A0193): 95 nM
